The source of these data is the nanobody polyreactivity screen of Harvey et al. (2022).

The nature of this series: yeast display, Sf9 membrane polyspecificity reagent, FACS + sequencing; frameworks hold sequencing errors. In short, it runs like this: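 Genes from sorted yeast were amplified by colony PCR, read by MiSeq 2 × 250 sequencing and filtered on CDR length. These cells carried a synthetic nanobody library in Saccharomyces cerevisiae BJ5465 and were sorted by FACS into low and high (top ~1%) gates on anti-HA and streptavidin fluorescence. Polyreactivity is labelled according to the gate of origin.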
For the sequence “QVQLVESGGGLVQAGGSLRLSCAASGSTFYSNVMGWYRQAPGKERELVAAISQSGGRTFYADSVKGRFTISRDNAKNTVYLQMNSLKPEDTAVYYCNNVRAQPRNPYDYWGQGTQVTVSS”, the “polyreactivity (PSR sort gate)” value is “high polyreactivity”.

“QVQLVESGGGLVQAGGSLRLSCAASGSTFYSYAMGWYRQAPGKERELVAAISWDGGLTYYADSVKGRFTISRDNAKNTVYLQMNSLKPEDNAVYYCAAAYPTYRHYYWGQGTQVTVSS”: the “polyreactivity (PSR sort gate)” value was “low polyreactivity”.

As for “QVQLVESGGGLVQAGGSLRLSCAASGSTFYSYAMGWYRQAPGKERELVAAISWNGGSTYYADSVKGRFTISRDNAKNTVYLQMNRLKPEDTAVYYCAALRYVHGYDYWGQGTQVTVSS”, the “polyreactivity (PSR sort gate)” value was “high polyreactivity”. Turning to “QVQLVESGGGLVQAGGSLRLSCAASGSTFYSYAMGWYRQAPGKERELVAAISWSGGSTYYADSVKGRFTISRDNAKNTVYLQMNSLKPEDTAVYYCAATRTRGYDGYGMYYWGQGTQVTVSS”, the “polyreactivity (PSR sort gate)” value is given as “high polyreactivity”. “QVQLVESGGGLVQAGGSLRLSCAASGSTFYSYAMGWYRQAPGKERELVAAITIISGSTYYADSVKGRFTISRDNAKNTVYLQMNSLKPEDTAVYYCAADSYYSFVPLDEYWGQGTQVTVSS”: the “polyreactivity (PSR sort gate)” value was “high polyreactivity”. As to “QVQLVESGGGLVQAGGSLRLSCAASGSTFYSYAMGWYRQAPGKEREMVAAITRGGSTNYADSVKGRFTISRDNAKNTVYLQMNSLKPDDTAVYYCAKSKYTGTAFGGKKTWFNYWGQGTQVTVSS”, the “polyreactivity (PSR sort gate)” value is “high polyreactivity”.

Consider “QVQLVESGGGLVQAGGSLRLSCAASGSTFYSYTMGWYRQAPGKERELVASITRGGSTYYADSVKGRFTISRDNAKNTVYLQLNSLKPEDTAVYYCAARGRYSIARYDYWGQGTQVTVSS”, for which the “polyreactivity (PSR sort gate)” value is given as “high polyreactivity”. Turning to “QVQLVESGGGLVQAGGSLRLSCAASGSTFYTHAMGWYRQAPGKERELVAAISASVGSTYYADSVKGRFTISRDNAKNTVYLQMNSLKPEDTAVYYCAADVWASRRYDYWGQGTQVTVSS”, the “polyreactivity (PSR sort gate)” value is on record as “low polyreactivity”. The same measure for “QVQLVESGGGLVQAGGSLRLSCAASGSTFYTNAMGWYRQAPGKERELVAAISGSGGSTYYADSVKGRFTISRDNAKNTVYLQMNSLKPEDTAVYYCAARSRYYDTRFDYWGQGTQVTVSS”: “low polyreactivity”; for “QVQLVESGGGLVQAGGSLRLSCAASGSTFYTYALGWYRQAPGKERELDAAITYNGGSTYYADSVKGRFTISRDNAKNTVYLQMNSLKPEDTAVYYCARTIYLGSRVNGYWRYDYWGQGTQVTVSS”: “high polyreactivity”. In the case of “QVQLVESGGGLVQAGGSLRLSCAASGSTFYTYAMGWYRQAPGKECELVAAISNRGGSTRYADSVKGRFTISRDNAKNTVYLQMNSLKPEDTAVYYCAAQRIRRGWYGYWGPGTQVTVSS”, the “polyreactivity (PSR sort gate)” value is “high polyreactivity”. The same measure for “QVQLVESGGGLVQAGGSLRLSCAASGSTFYTYAMGWYRQAPGKERELVAAISSGGGTTYADSVKGRFTISRDNAKNTVYLQMNSLKPEDTAVYYCAAVTRDYRNDRRRQRYYYWGQGTQVTVSS”: “high polyreactivity”; for “QVQLVESGGGLVQAGGSLRLSCAASGSTFYTYAMGWYRQAPGKERELVAAISWSGGSTYYADSVKGRFTISRDNAKNTVYLQMNSLKPEDTAVYYCAADRPYAGRYWKGYHSALYDYWGQGTQVTVSS”: “low polyreactivity”; for “QVQLVESGGGLVQAGGSLRLSCAASGSTFYTYAMGWYRQAPGKERELVAAISYRGGSTYYADSVKGRFTISRDNAKNTVYLQMNSLKPEDTAVYYCNVDGVVVGTKRGGYDYWGQGTQVTVSS”: “low polyreactivity”.

Regarding “QVQLVESGGGLVQAGGSLRLSCAASGSTFYTYVMGGYRQAPGKERELVAAITRSGGITYYADSVKGRFTISRDNAKYTVYLQMNSLKPEDTAVYYCAKDDQTASGFDYWGQGTQVTVSS”, the “polyreactivity (PSR sort gate)” value is “low polyreactivity”. With “QVQLVESGGGLVQAGGSLRLSCAASGSTFYTYVMGWYRQAPGKERELVAAISSGGGNTYYADTVTGRFTISRDHGKNTVYLQMNSLKPEDTAVYYCAAETFRWSDYDYWGQGTQVTVSS”, the “polyreactivity (PSR sort gate)” value is “high polyreactivity”. The same measure for “QVQLVESGGGLVQAGGSLRLSCAASGSTFYVNAMGWYRQAPGKERELVASISSSSGSTYYADSVKGRFTISRDNAKNTVYLQMNSLKPEDTAVYYCAAEVGIFIWFDYWGQGTQVTVSS”: “low polyreactivity”; for “QVQLVESGGGLVQAGGSLRLSCAASGSTFYVNAMGWYRQAPGKERELVAVISTGGSTYYADSVKGRFTISRDNAKNTVYLQMNSLKPEDTAVYYCAKRDLPDRSGTPNVIPFDYWGQGSQVTVSS”: “low polyreactivity”. Consider “QVQLVESGGGLVQAGGSLRLSCAASGSTFYVNDMGRYRQAPGNERELVAAITWGVGDTYYADSVKGRFTISRDNAKNTVYLQMNSQKPEDTAVYYCAADTSYYYAYTQMEYWGQGTQVTVSS”, for which the “polyreactivity (PSR sort gate)” value is listed as “low polyreactivity”. The same measure for “QVQLVESGGGLVQAGGSLRLSCAASGSTFYVNSMGWYRQAPGKERELVAGISFSDGSTYYADSVKGRFTISRDNAKNTVYLQMNSLKPEDTAVYYCATVGALDIYYGYGYWVQGTQVTVSS”: “low polyreactivity”; for “QVQLVESGGGLVQAGGSLRLSCAASGSTFYVNTMGWYRQAPGKERELVAAINWRGGSTYYADSVKGRFTISRDNAKNTVYLQMNSLKPEDTAVYYCAAYGYYRYVTAYIYDMDYWGQGTQVTVSS”: “low polyreactivity”; for “QVQLVESGGGLVQAGGSLRLSCAASGSTFYVNTMGWYRQAPGKERELVAAISGSGGSTYYADSVKGRFTISRDNAKNTVYLQMNSLKPEDTAVHYCAARSRYGYITFDYWGQGTQVTVSS”: “high polyreactivity”. Take “QVQLVESGGGLVQAGGSLRLSCAASGSTFYVYAMGWYRQAPGKARELVAAIRSGGSTNYADSVKGRFTISRDNAKNTVYFQLNSLKPEDTAVYYCNADTWLYRYDYWGQGTQVTVSS”: the “polyreactivity (PSR sort gate)” value is “low polyreactivity”.

Take “QVQLVESGGGLVQAGGSLRLSCAASGSTFYVYAMGWYRQAPGKERELVAAIDSGDSTNYADSVKGRFTISRDNAKNTVYLQMNSLKPEDTAVYYCAADRTVYPFNYWGQGTQVTVSS”: the “polyreactivity (PSR sort gate)” value is “low polyreactivity”.

Consider “QVQLVESGGGLVQAGGSLRLSCAASGSTFYVYAMGWYRQAPGKERELVAAISSSGARTYYADSVKGRFTISRDNAKNTVYLQMNSLKPEDTAVYYCAARRYYKFYYWGQGTQVTVSS”, for which the “polyreactivity (PSR sort gate)” value is “high polyreactivity”. The same measure for “QVQLVESGGGLVQAGGSLRLSCAASGSTFYVYAMGWYRQAPGKERELVAAITTGGSTYYADSVKGRFTISRDNAKNTVYLQMNSLKPEDTAVYYCAADDPDPYDVPSYDYWGHGTQVTVSS”: “low polyreactivity”.

As for “QVQLVESGGGLVQAGGSLRLSCAASGSTFYVYVMGWYRQAPGKERELVAAISRSGGRTYYADSVKGRFTISRDNAKNTVYLQMNSLKPEDTSGYYCNARGSRRGGPGYEYWGQGTQVTVSS”, the “polyreactivity (PSR sort gate)” value is reported as “high polyreactivity”. The same measure for “QVQLVESGGGLVQAGGSLRLSCAASGSTFYYFALGWYRQAPGKERELVAAISSGGTTNYADSVKGRFTISRDNAKNTVYLQINSLKPEDTAVYYCAARFRRVRFTHYDYWGQGTQVTVSS”: “high polyreactivity”; for “QVQLVESGGGLVQAGGSLRLSCAASGSTFYYNAMGWYRQAPGKERELVAGISGGGSTNYADSVKGRFTISRDNAKNTVYLQMNSLKPEDTAVYYCAARERYRGAIGYDYWGKGTQVTVSS”: “low polyreactivity”; for “QVQLVESGGGLVQAGGSLRLSCAASGSTFYYNAMRWYRQAPGKERELVAAITGSGDSTYYADSVKGRFTISRDNAKNTVYLQMNSLKPEDTAVYYCAADTYSTYWGQGTQVTVSS”: “low polyreactivity”. The same measure for “QVQLVESGGGLVQAGGSLRLSCAASGSTFYYNGMGWYRQAPGKERELVAVISISGGSTYYADSVKGRFTISRDNAKNTVYLQMNSLKPEDTAVYYCATSYVGRSAYRSYGARGGYWGQGTQVTVSS”: “low polyreactivity”; for “QVQLVESGGGLVQAGGSLRLSCAASGSTFYYYAMGWYRPAPGKEREFVASISSRGTSTYYADSVKGRFTISRDNAKNTVYIQMISLKPEDTAVDYGAARVWGPTRAYDYWGQGTQVTVSS”: “high polyreactivity”.

As for “QVQLVESGGGLVQAGGSLRLSCAASGSTFYYYAMGWYRPAPGKEREMVAAINSGGRTNYADSVKGRFTISRDNAKNSVYLQMNSLKPEDTAVYYCAKRTYPYGTYRSVWGYDYWGQGTQVTVSS”, the “polyreactivity (PSR sort gate)” value is given as “low polyreactivity”. Regarding “QVQLVESGGGLVQAGGSLRLSCAASGSTFYYYAMGWYRQAPGKERELVAAISASGDSTYYADSVKGRFTISRDNAKNTVYLQMNSLKPEDTAVYYCAAQYYFYPHEFDYWGQGTQVTVSS”, the “polyreactivity (PSR sort gate)” value was “low polyreactivity”. The same measure for “QVQLVESGGGLVQAGGSLRLSCAASGSTFYYYAMGWYRQAPGKERELVAAISTSDGSTYYADSVKGRFTISRDNAKNTVYLQMNSLKPEDTAVYYCAAESYERFPSYYYWGQGTQVTVSS”: “low polyreactivity”; for “QVQLVESGGGLVQAGGSLRLSCAASGSTFYYYAMGWYRQAPGKERELVAAISVRAGITYYADSVKGRFTISRDNAKNTVYLQMNSLKPEDTAVYYCAKDHWTTSYDEGDYWGQGTQVTVSS”: “low polyreactivity”. The same measure for “QVQLVESGGGLVQAGGSLRLSCAASGSTFYYYAMGWYRQAPGKERELVAAISWRCSSTYYADSVKGRFTISRDNAKNTVYLQMNSLKPEDTAVYYCAAGYPGRVSGYLFGTRATYYYWGQGTQVTVSS”: “high polyreactivity”. For “QVQLVESGGGLVQAGGSLRLSCAASGSTFYYYAMGWYRQAPGKERELVAAITIGGSTNYADSVKGRFTISRDNAKNTVYLQMNSLKPVDTAVYYCAADYRITYARDFDYWGQGTQVTVSS”, the “polyreactivity (PSR sort gate)” value is listed as “low polyreactivity”. With “QVQLVESGGGLVQAGGSLRLSCAASGSTFYYYAMGWYRQAPGKERELVAAITSGGSTDYADSVKGRFTISRDNAKNTVYLQMKSLKPEDTAVYYCAKDSQSYTREAYYYWGQGTQVTVSS”, the “polyreactivity (PSR sort gate)” value is “low polyreactivity”. The same measure for “QVQLVESGGGLVQAGGSLRLSCAASGSTFYYYAMGWYRQAPGKERELVAAITYSGGSTTYADSVKGRFTISRDNAKNTVYLQMNSLKPEDTAVYYCAAYVYRYHRVAYEYWGQGTQVTVSS”: “high polyreactivity”; for “QVQLVESGGGLVQAGGSLRLSCAASGSTFYYYAMGWYRQAPGKERELVATITSGASTNYADSVKGRFTISRDNAKNTVYLQMNSLKPEDTAVYYSNAGSLTSYLPWSSYDYWGQGTQVTVSS”: “low polyreactivity”.
